Test [1] has as its target ovalbumin-anti-ovalbumin immune complexes (OVA ICs). Kind of test: cell-based or functional assay.
Test [2] addresses heat-aggregated IgG (HAGG). Description: cell-based or functional assay.

B1: recombinant soluble D2FcγRIIaFc (D2) protein (Fc fusion)
chain: QAAAPPKAVLKLEPPWINVLQEDSVTLTCQGARSPESDSIQWFHNGNLIPTHTQPSYRFKANNNDSGEYTCQTGQTSLSDPVHLTVLSEWLVLQTPHLEFQEGETIMLRCHSWKDKPLVKVTFFQNGKSQKFSHLDPTFSIPQANHSHSGDYHCTGNIGYTLFSSKPVTITVQVPSMGSSSPVAPPKAVLKLEPPWINVLQEDSVTLTCQGARSPESDSIQWFHNGNLIPTHTQPSYRFKANNNDSGEYTCQTGQTSLSDPVHLTVLSEWLVLQTPHLEFQEGETIMLRCHSWKDKPLVKVTFFQNGKSQKFSHLDPTFSIPQANHSHSGDYHCTGNIGYTLFSSKPVTITVQVPSMGSSSPPRGPTIKPCPPCKCPAPNLEGGPSVFIFPPKIKDVLMISLSPIVTCVVVDVSEDDPDVQISWFVNNVEVHTAQTQTHREDYNSTLRVVSALPIQHQDWMSGKAFACAVNNKDLPAPIERTISKPKGSVRAPQVYVLPPPEEEMTKKQVTLTCMVTDFMPEDIYVEWTNNGKTELNYKNTEPVLDSDGSYFMYSKLRVEKKNWVERNSYSCSVVHEGLHNHHTTKSFSRTPGK
With B1, in test [1], the “fold potency against BIF and M2, loss of CD62L on human neutrophils induced by OVA ICs” value was roughly 6 fold; the “fold potency against Fc-tagged monomer (M2), MC/9 TNF-α release” value stood at 12 fold; the “fold potency against the non-Fc tagged dimer, MC/9 TNF-α release” value amounted to 3 fold. In addition, the “fold potency against BIF and M2, HAGG-induced platelet activation (CD41 and CD62P positive)” value in test [2] was roughly 3 fold.

B2: recombinant soluble FcγRIIa dimer (rsFcγRIIa dimer), head to tail homodimer construct of FIG. 1 (receptor)
chain: QAAAPPKAVLKLEPPWINVLQEDSVTLTCQGARSPESDSIQWFHNGNLIPTHTQPSYRFKANNNDSGEYTCQTGQTSLSDPVHLTVLSEWLVLQTPHLEFQEGETIMLRCHSWKDKPLVKVTFFQNGKSQKFSHLDPTFSIPQANHSHSGDYHCTGNIGYTLFSSKPVTITVQVPSMGSSSPVAPPKAVLKLEPPWINVLQEDSVTLTCQGARSPESDSIQWFHNGNLIPTHTQPSYRFKANNNDSGEYTCQTGQTSLSDPVHLTVLSEWLVLQTPHLEFQEGETIMLRCHSWKDKPLVKVTFFQNGKSQKFSHLDPTFSIPQANHSHSGDYHCTGNIGYTLFSSKPVTITVQVPSMGSSSPHHHHHH
Regarding B2, in test [1], the “IC50, TNF-α release from MC/9 cells induced by OVA ICs” value was 2.1 µg/mL and the “fold potency against rsFcγRIIa monomer, MC/9 TNF-α release” value came to 8 fold.
